Measured values taken from patent US20190389956A1 (INSTITUTE OF BIOPHYSICS CHINESE ACADEMY OF SCIENCES, published 2019).

Experiments:
[1] = biological target: T1, human IFNAR1 truncation lacking extracellular SD1, fused with GFP, expressed on HEK293T cells (human, UniProt P17181 28-457); experiment: flow cytometry on transfected HEK293T cells, PE anti-mouse IgG
T1 construct: domain: extracellular and transmembrane domains lacking SD1 (32-126); Made from pEGFP-humanIFNAR1EC by overlap PCR; transiently expressed on HEK293T cells; also called R1-Δ1; RI-Δ1; not shown: C-terminal GFP (with linker) from the pEGFP vector
T1 sequence (looked up): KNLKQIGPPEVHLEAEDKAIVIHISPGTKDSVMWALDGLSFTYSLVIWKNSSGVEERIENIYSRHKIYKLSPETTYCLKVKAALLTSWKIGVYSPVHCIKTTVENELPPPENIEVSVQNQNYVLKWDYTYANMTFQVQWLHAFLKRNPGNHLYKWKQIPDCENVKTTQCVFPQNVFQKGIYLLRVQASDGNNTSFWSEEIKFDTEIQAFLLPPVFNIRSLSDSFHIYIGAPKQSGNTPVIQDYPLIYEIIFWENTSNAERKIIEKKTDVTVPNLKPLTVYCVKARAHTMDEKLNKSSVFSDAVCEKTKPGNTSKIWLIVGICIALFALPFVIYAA

[2] = biological target: T2, human IFNAR1 extracellular and transmembrane domains fused with GFP, expressed on HEK293T cells … (human, UniProt P17181 28-457); experiment: flow cytometry screening on HEK293T cells expressing human IFNAR1 extracellular domain-GFP
T2 construct: domain: extracellular domains and transmembrane domains; the intracellular domain is replaced by GFP; also called R1-WT; HEK293T cells stably expressing IFNAR1; not shown: C-terminal GFP (with linker) from the pEGFP vector
T2 sequence (looked up): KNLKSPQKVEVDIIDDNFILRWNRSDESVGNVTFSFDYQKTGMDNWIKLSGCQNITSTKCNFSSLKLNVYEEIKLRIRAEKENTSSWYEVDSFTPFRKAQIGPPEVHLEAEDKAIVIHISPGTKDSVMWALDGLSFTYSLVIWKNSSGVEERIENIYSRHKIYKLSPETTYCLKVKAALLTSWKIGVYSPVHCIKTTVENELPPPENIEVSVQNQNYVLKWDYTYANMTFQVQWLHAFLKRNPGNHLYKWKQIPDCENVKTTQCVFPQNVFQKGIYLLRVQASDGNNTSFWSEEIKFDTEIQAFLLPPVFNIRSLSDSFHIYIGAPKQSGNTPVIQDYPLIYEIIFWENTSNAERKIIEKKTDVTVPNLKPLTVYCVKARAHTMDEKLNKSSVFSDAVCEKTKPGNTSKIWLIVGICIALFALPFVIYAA
From the text: Hybridoma secreting IFNAR1 antibody can be screened by analyzing GFP and PE signals of cells by flow cytometry. Monoclonal IgG antibodies of each well were screened by a reporter cell line stably expressing the extracellular domain of IFNAR1. Once extensive hybridoma growth occurs, hybridoma cells are usually screened after 10-14 days. Hybridoma cells secreting IFNAR1 antibody are subcloned by limited dilution method and were screened again. If still positive for human IFNAR1, then the monoclonal antibody is subcloned at least twice by limited dilution. Then the stable subclones are cultured in vitro, and a small amount of antibodies are produced in tissue culture medium for characterization.
The day before screening, 100 μL supernatant was aspirated from 96-well cell culture plate into a 96-well U bottom plate. 100 μL fresh 1×HAT RPMI medium was added to the original well for continued culture. HEK293T cells stably expressing IFNAR1 were harvested and were subsequently added to a 96-well U-bottom plate at a density of 10,000 cells/200 μL/well. After centrifugation at 2200 rpm for 3 min, the supernatant was discarded and the cell pellet was collected and re-suspended with 100 μL hybridoma supernatant at 4° C. for 30 min. […] Finally, the re-suspended cells were analyzed using a flow cytometer Guava (Millipore) for cellular GFP and PE signal. […]

B1: mouse anti-human IFNAR1 monoclonal antibody 10C2 (antibody, V domains shown)
VH: QIQLVQSGPELKKPGETVKISCKASGYTFTNYGMNWVKQAPGKGLKWMGWINTYTGEPTYSDDFKGRFAFSLETSASTANLQINNLKDEDAATYFCAREGAIYYGDYVYFGVWGAGTTVTVSS
VL: DIVMTQSQKFMSTSVGDRVSITCKASQNVGTAVAWYQEKPGQSPKLLIYSASNRYTGVPDRFTGSGSGTAFTLTISNMQSEDLADYFCQQYYNYPLTFGAGTKLEVKR
notes: Mouse monoclonal IgG from a hybridoma, detected with anti-mouse IgG; also called antibody secreted by hybridoma cell line 10C2 (CGMCC No. 12542)
binding result [1]: no binding (tested: 5 µg/ml (methods of Example 2))
binding result [2]: binds

B2: mouse anti-human IFNAR1 monoclonal antibody 10C9 (antibody, V domains shown)
VH: QIQLVQSGPELKKPGETVKISCKASGYTFTNYGVNWMKQAPGKGLKWMGWINTYTGEPTYADDFKGRFAFSLETSASTAYLQINNLKNEDTATYFCAREGVYYYGDWAWLAYWGQGTLVTVSA
VL: DIVMTQSQKFISTSVGDRVSVTCKASQNVGTNVAWYQQKPGQSPKTLIYSTSYRYNGVPDRFTGSGSGTDFTLTISNVQSEDLAEYFCQQYNSYYTFGGGTKLEIK
notes: Mouse monoclonal IgG from a hybridoma, detected with anti-mouse IgG; also called antibody secreted by hybridoma cell line 10C9 (CGMCC No. 12543)
binding result [1]: no binding (tested: 5 µg/ml (methods of Example 2))
binding result [2]: binds
